36 variants from the Human Domainome abundance scans (Beltran et al. 2025) can be followed below.

First the molecules themselves.
B1: Mineralocorticoid receptor, residues 600 to 675; numbered along this chain, P08235 (parent)
chain: SKICLVCGDEASGCHYGVVTCGSCKVFFKRAVEGQHNYLCAGRNDCIIDKIRRKNCPACRLQKCLQAGMNLGARKS

± gives the uncertainty stated by the source.

The variants in this data set derive from B1. Briefly: abundance fitness (aPCA) (normalised: wild type 0, dead -1); higher = more abundant; growth selection in yeast, the domain comes from the species named. Conditions: Homo sapiens.
Consider SKICLVCGDEASGCHYGVVTCGSCKVFFKRAVEGQHNYLCAGRNDCIGDKIRRKNCPACRLQKCLQAGMNLGARKS, for which the abundance fitness was -0.033 ± 0.04.

In the case of SKICLVCGDEASGCHYGVVTCGSCKVFFKRAVEGQHNYLCAGRNDCIYDKIRRKNCPACRLQKCLQAGMNLGARKS, the abundance fitness is -0.176 ± 0.063.

As to SKICLVCGDEASGCHYGVVTCGSCKVLFKRAVEGQHNYLCAGRNDCIIDKIRRKNCPACRLQKCLQAGMNLGARKS, the abundance fitness was -0.65 ± 0.078.

SKICLVCGDEASGCHYGVVTCGSCKVFFKRAVEGQHNYECAGRNDCIIDKIRRKNCPACRLQKCLQAGMNLGARKS: the abundance fitness is -0.047 ± 0.057.

SKICLVCGDEASGCHYGVVTCGSCKVFFKRAVEGQHNYMCAGRNDCIIDKIRRKNCPACRLQKCLQAGMNLGARKS: the abundance fitness worked out at 0.016 ± 0.054.

SKICLVCGDEASGCHYGVVGCGSCKVFFKRAVEGQHNYLCAGRNDCIIDKIRRKNCPACRLQKCLQAGMNLGARKS: the abundance fitness was -0.067 ± 0.046.

As for SKICLVCGDEASGCHYGVVTCGSCKVFKKRAVEGQHNYLCAGRNDCIIDKIRRKNCPACRLQKCLQAGMNLGARKS, the abundance fitness is -0.856 ± 0.24.

Regarding SKICLVCGDEASGCHYGVVTCGSCKVFRKRAVEGQHNYLCAGRNDCIIDKIRRKNCPACRLQKCLQAGMNLGARKS, the abundance fitness was -0.898 ± 0.1.

As to SKICLVCGDEASGCHYGVVTCGSCKVFFKRAVEGQHNYLCAGRNDCIIDKIRRKNCPAKRLQKCLQAGMNLGARKS, the abundance fitness is -0.972 ± 0.17.

As to SKICLVCGDEASGCHYGVVTCGSCKVFFKRAVEGQHNYLCAGRNDCIIDKIRRKNCPAQRLQKCLQAGMNLGARKS, the abundance fitness was -0.957 ± 0.15.

On to SKICLVCGDEASGCHYGVVTCGSCKVFFKRAVEGQHNYLRAGRNDCIIDKIRRKNCPACRLQKCLQAGMNLGARKS, for which the abundance fitness is -1 ± 0.15.

On to SKICLVCGDEASGCSYGVVTCGSCKVFFKRAVEGQHNYLCAGRNDCIIDKIRRKNCPACRLQKCLQAGMNLGARKS, for which the abundance fitness was -0.075 ± 0.053.

Consider SKICLVCGDEASGCHYGVVTCGSCKVFFKRAVEGQHNYLCAGRNDCIIDKIRWKNCPACRLQKCLQAGMNLGARKS, for which the abundance fitness is -0.035 ± 0.053.

Turning to SKICLVCGDEASGCHYGVVTCGSCKVFFKRAVEGQHNYLCAGRNDCIIDKIREKNCPACRLQKCLQAGMNLGARKS, the abundance fitness is 0.087 ± 0.056.

For the variant SKICLVCGDEASGCHYGVVTCGSCKVFFKRAVEGQHNYLCAGRNDCIIDKIRPKNCPACRLQKCLQAGMNLGARKS, the abundance fitness was -0.056 ± 0.058.

Take SKICLVCGDEASGCHYGVVTCGSCKVFFKRAVEGQHNYLCAGRNDCIIDKIRFKNCPACRLQKCLQAGMNLGARKS: the abundance fitness was -0.056 ± 0.19.

In the case of SKICLVCGDEASGCHYGVVTCGSCKVFFKRAVEGQHNYLCCGRNDCIIDKIRRKNCPACRLQKCLQAGMNLGARKS, the abundance fitness is -0.017 ± 0.06.

For SKICLVCGDEASGCHYGVVTCGSCKVFFKRAVEGQHNDLCAGRNDCIIDKIRRKNCPACRLQKCLQAGMNLGARKS, the abundance fitness was -0.041 ± 0.05.

Turning to SKICLVCGDEASGCHYGVVTCGSCKVFFKRAVEGQHNMLCAGRNDCIIDKIRRKNCPACRLQKCLQAGMNLGARKS, the abundance fitness is -0.117 ± 0.1.

Consider SKICLVCGDEASGCHYGVVTCGSCKVFFKRAVEGQHNPLCAGRNDCIIDKIRRKNCPACRLQKCLQAGMNLGARKS, for which the abundance fitness is -0.038 ± 0.043.

For the variant SKICLVCGDEASGCHYGVVTCGSCKVFFKRAVEGQHQYLCAGRNDCIIDKIRRKNCPACRLQKCLQAGMNLGARKS, the abundance fitness is -0.017 ± 0.046.

With SKICLVCGDEASGCHYGVVTCGSCKVFFKRAVEGQHEYLCAGRNDCIIDKIRRKNCPACRLQKCLQAGMNLGARKS, the abundance fitness was determined as 0.068 ± 0.042.

Take SKICLVCGDEASGCHYGVVTCGSCKVFFKRAVEGQHNYLCAGRNDLIIDKIRRKNCPACRLQKCLQAGMNLGARKS: the abundance fitness is -0.819 ± 0.094.

For the variant SKICLVCGDEASGCHYGVVTCGSCKVFFKRAVEGQHNYLCAGRNDGIIDKIRRKNCPACRLQKCLQAGMNLGARKS, the abundance fitness is -0.636 ± 0.11.

With SKICLVCGDEASCCHYGVVTCGSCKVFFKRAVEGQHNYLCAGRNDCIIDKIRRKNCPACRLQKCLQAGMNLGARKS, the abundance fitness was -0.407 ± 0.094.

Regarding SKICLVCGDEASGCHYGVVTCGSCKVFFKRAVEGQHNYLCAGRNDCIIDKIRRKNCPACRLQKCLQADMNLGARKS, the abundance fitness was -0.164 ± 0.079.

For SKICLVCGDEASGCHYGVVTCGSCKVFFKRAVTGQHNYLCAGRNDCIIDKIRRKNCPACRLQKCLQAGMNLGARKS, the abundance fitness was -0.051 ± 0.045.

On to SKICLVCGDEASGCHYGVYTCGSCKVFFKRAVEGQHNYLCAGRNDCIIDKIRRKNCPACRLQKCLQAGMNLGARKS, for which the abundance fitness is -0.247 ± 0.11.

Consider SKICLVCGDEASGCHYGVPTCGSCKVFFKRAVEGQHNYLCAGRNDCIIDKIRRKNCPACRLQKCLQAGMNLGARKS, for which the abundance fitness was 0.001 ± 0.058.

Turning to SKICLVCGDEASGCHYGVQTCGSCKVFFKRAVEGQHNYLCAGRNDCIIDKIRRKNCPACRLQKCLQAGMNLGARKS, the abundance fitness is -0.02 ± 0.064.

SKICLVCGDEASGCHYGVVTCGSCKVFFKRAVEGQTNYLCAGRNDCIIDKIRRKNCPACRLQKCLQAGMNLGARKS: the abundance fitness is -0.022 ± 0.037.

As to SKICLVCGDEASGCHYGVVTCGSCKVFFKRAVEGQENYLCAGRNDCIIDKIRRKNCPACRLQKCLQAGMNLGARKS, the abundance fitness is -0.004 ± 0.038.

For SKICLVCGDEASGCHYGVVTCGSCKVFFKRAVEGQHNYLCAGRNDCIIDKIRRKNCPACRLQKCLGAGMNLGARKS, the abundance fitness was -0.044 ± 0.049.

On to SKICLVCGDEASGCHYGVVTCGSCKVFFKRAAEGQHNYLCAGRNDCIIDKIRRKNCPACRLQKCLQAGMNLGARKS, for which the abundance fitness was 0.023 ± 0.1.

Take SKICLVCGDEASGCHYGVVTCGSCKVFFKRAPEGQHNYLCAGRNDCIIDKIRRKNCPACRLQKCLQAGMNLGARKS: the abundance fitness was -0.682 ± 0.25.

In the case of SKICLVRGDEASGCHYGVVTCGSCKVFFKRAVEGQHNYLCAGRNDCIIDKIRRKNCPACRLQKCLQAGMNLGARKS, the abundance fitness was -0.886 ± 0.18.
